One test relates to CaMV 35S promoter. Put plainly: Transcription assay, GUS reporter driven by CaMV 35S promoter in tobacco protoplasts. In kind it is cell-based, cauliflower mosaic virus. As to the method:
FIGS. 24A-C show schematics of constructs (FIG. 24A) and the repression effect of StBEL-05 and POTH1 on the ga20ox1 promoter (FIG. 24B) and on the 35S CaMV promoter (FIG. 24C). The construct with the LUC gene under the control of the cauliflower mosaic virus (CaMV) 35S promoter was used as an internal control. Each transfection was performed three times. Relative GUS-LUC activity was calculated with reporter alone set as 100%. Data are means±SE.
For each transfection analysis, 700 μL of tobacco protoplasts (prepared as described above) were mixed with 30 μL 2 M KCl and plasmid DNA in an electroporation cuvette with 0.4-cm electrode gap. […]
Luciferase assays were performed by injecting 100-μL luciferase substrate (Promega, Madison, Wis.) into 20 μL of extract and measuring the emitted photons for 15 seconds in a TD-20 luminometer (Turner Designs, Sunnyvale, Calif.). […] A fluorescence multiwell plate reader, Fluoroskan II (MTX labs, Vienna, Va.), was used to measure GUS activity at 365 nm (excitation) and 455 nm (emission). Each sample was measured three times for both LUC and GUS activity. Relative GUS-LUC activity was calculated by dividing the ratio of GUS activity to LUC activity from different effectors with the ratio from reporter plasmid alone. Relative activities calculated from three transfection replications were presented as a mean±SE.

The target of a further test is T1, GAD protein alone (UniProt P04386 768-881, limits assumed).
T1 construct: Control of the immunoprecipitation
T1 sequence (looked up): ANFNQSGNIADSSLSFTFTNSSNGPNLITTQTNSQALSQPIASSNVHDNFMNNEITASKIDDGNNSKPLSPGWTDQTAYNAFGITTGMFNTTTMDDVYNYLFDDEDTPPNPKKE
Put plainly: in vitro translated 35S-labelled proteins, immunoprecipitation with anti-GAD antibodies. The protocol: In vitro binding experiments were performed as described by Ni et al., "PIF3, a Phytochrome-Interacting Factor Necessary for Normal Photoinduced Signal Transduction, is a Novel Basic *Helix*-Loop-Helix Protein," *Cell* 95:657-667 (1998), which is hereby incorporated by reference in its entirety. The full-length sequence for POTH1 was cloned into a pET17b/GAD fusion cassette and transcribed under the control of the T7 promoter. The BEL cDNAs were cloned into pGEM11Z vectors and were transcribed under the control of the T7 promoter. ^35S-methionine labeled bait and prey proteins were synthesized using the TnT in vitro transcription-translation kit (Promega) according to the manufacturer's protocols. Each 50 μl TnT reaction contained 2.0 μg of template plasmid DNA and 20 μmol (20 μCi) of labeled ^35S-methionine. The POTH1:GAD/BEL complex was immunoprecipitated with anti-GAD antibodies (Santa Cruz Biotechnology, Calif.). The proteins from the pellet (one-half the fraction) and for the prey (one-fourth of the reaction volume) were resolved on a 10% SDS-PAGE gel and visualized by autoradiography.

The subject of a further test is POTH1. Put plainly: Yeast two-hybrid interaction with POTH1. The test is classed as binding, Solanum tuberosum. The settings on record: nutritional selection and lacZ activation, yeast AH109.

The record followed here is patent US7265263B1, “Potato transcription factors, methods of use thereof, and a method for enhancing tuber development” (Iowa State University Research Foundation, Inc., priority 2002, dated 2007).

POTH1, sequence (as listed by the source): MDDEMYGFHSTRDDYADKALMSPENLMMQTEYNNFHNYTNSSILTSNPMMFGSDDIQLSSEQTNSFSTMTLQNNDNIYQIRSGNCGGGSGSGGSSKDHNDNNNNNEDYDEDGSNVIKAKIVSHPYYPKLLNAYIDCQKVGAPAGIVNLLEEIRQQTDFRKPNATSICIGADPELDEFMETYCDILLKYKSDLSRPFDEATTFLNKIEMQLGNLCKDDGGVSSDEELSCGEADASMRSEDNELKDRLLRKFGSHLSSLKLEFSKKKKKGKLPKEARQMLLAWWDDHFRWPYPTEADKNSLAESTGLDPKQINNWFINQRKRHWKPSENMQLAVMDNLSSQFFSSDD

B1: StBEL-05 protein from pGEM11Z (in vitro transcription/translation) (other)
chain: MYYQGTSDNTNIQADHQQRHNHGNSNNNNIQTLYLMNPNNYMQGYTTSDTQQQQQLLFLNSSPAASNALCHANIQHAPLQQQHFVGVPLPAVSLHDQINHHGLLQRMWNNQDQSQQVIVPSSTGVSATSCGGITTDLASQLAFQRPIPTPQHRQQQQQQGGLSLSLSPQLQQQISFNNNISSSSPRTNNVTIRGTLDGSSSNMVLGSKYLKAAQELLDEVVNIVGKSIKGDDQKKDNSMNKESMPLASDVNTNSSGGGESSSRQKNEVAVELTTAQRQELQMKKAKLLAMLEEVEQRYRQYHHQMQIIVLSFEQVAGIGSAKSYTQLALHAISKQFRCLKDAIAEQVKATSKSLGEEEGLGGKIEGSRLKFVDHHLRQQRALQQIGMMQPNAWRPQRGLPERAVSVLRAWLFEHFLHPYPKDSDKIMLAKQTGLTRSQVSNWFINARVRLWKPMVEEMYLEEVKNQEQNSTNTSGDNKNKETNISAPNEEKHPIITSSLLQDGITTTQAEISTSTISTSPTAGASLHHAHNFSFLGSFNMDNTTTTVDHIENNAKKQRNDMHKFSPSSILSSVDMEAKARESSNKGFTNPLMAAYAMGDFGRFDPHDQQMTANFHGNNGVSLTLGLPPSENLAMPVSQQNYLSNDLGSRSEMGSHYNRMGYENIDFQSGNKRFPTQLLPDFVTGNLGT
notes: 35S-methionine labelled prey; also called p11Z-5
As to B1, the “effect on the activity of the CaMV 35S promoter” value with CaMV 35S promoter was “Neither StBEL-05 nor POTH1 showed any effect”. Besides, the binding result with GAD protein alone is “no binding”. In the test with POTH1, the “interaction with POTH1” value is reported as “showed selective interaction”.
